Results reported in the Immune Epitope Database (IEDB).
Each block holds one sequence with its values, some of them ahead of it.

Legend:
HLA-B*35:01 = assay: IEDB peptide-MHC binding, purified MHC/competitive/fluorescence; filed as Kd, often an IC50 or EC50 that approximates it; ≥ and ≤ were set here for values at or beyond the usual limits of such assays
HLA-B*15:01 [1] = assay: as above
HLA-A*24:02 = assay: IEDB peptide-MHC binding, purified MHC/direct/fluorescence; filed as Kd, often an IC50 or EC50 that approximates it; ≥ and ≤ were set here for values at or beyond the usual limits of such assays
HLA-A*31:01 = assay: as above; conditions: source organism: Influenza A virus (A/swine/Cotes d'Armor/800/00(H1N2))
HLA-A*01:01 = assay: as above
HLA-A*03:01 [2] = assay: as above
HLA-B*46:01 [3] = assay: as above
HLA-B*18:01 [4] = assay: as above
HLA-A*02:01 [5] = assay: as above
HLA-B*40:01 = assay: as above
HLA-B*27:05 = assay: as above
HLA-A*11:01 = assay: as above
HLA-B*08:01 = assay: as above
HLA-B*07:02 [6] = assay: as above
HLA-B*58:01 = assay: as above
HLA-A*02:11 = assay: as above; conditions: source organism: Influenza A virus H3N2
HLA-B*15:01 [7] = assay: as above
HLA-A*02:16 [8] = assay: as above; conditions: source organism: Influenza A virus H3N2
HLA-A*69:01 [9] = assay: as above
HLA-B*44:02 = assay: as above
HLA-B*15:09 = assay: as above
HLA-B*57:01 = assay: IEDB peptide-MHC binding, purified MHC/competitive/fluorescence; filed as Kd, often an IC50 or EC50 that approximates it; ≥ and ≤ were set here for values at or beyond the usual limits of such assays
HLA-B*51:01 = assay: as above
HLA-B*46:01 [10] = assay: as above
HLA-B*27:03 = assay: as above
HLA-A*02:19 = assay: as above
HLA-B*18:01 [11] = assay: as above
HLA-A*02:01 [12] = assay: as above
HLA-A*26:01 = assay: as above
HLA-A*68:02 = assay: as above; conditions: source organism: Cryptosporidium parvum Iowa II
HLA-A*02:12 = assay: as above; conditions: source organism: Cryptosporidium parvum Iowa II
HLA-A*02:03 = assay: as above; conditions: source organism: Cryptosporidium parvum Iowa II
HLA-A*29:02 = assay: as above
HLA-A*02:16 [13] = assay: as above; conditions: source organism: Cryptosporidium parvum Iowa II
HLA-B*39:01 = assay: as above
HLA-A*69:01 [14] = assay: as above; conditions: source organism: Cryptosporidium parvum Iowa II
HLA-C*05:01 = assay: IEDB peptide-MHC binding, purified MHC/direct/fluorescence; filed as Kd, often an IC50 or EC50 that approximates it; ≥ and ≤ were set here for values at or beyond the usual limits of such assays; conditions: source organism: Influenza A virus (A/Harbin/1/1988(H1N2))
HLA-B*07:02 [15] = assay: IEDB peptide-MHC binding, purified MHC/competitive/fluorescence; filed as Kd, often an IC50 or EC50 that approximates it; ≥ and ≤ were set here for values at or beyond the usual limits of such assays; conditions: source organism: Influenza A virus (A/Harbin/1/1988(H1N2))
HLA-B*08:02 = assay: IEDB peptide-MHC binding, purified MHC/direct/fluorescence; filed as Kd, often an IC50 or EC50 that approximates it; ≥ and ≤ were set here for values at or beyond the usual limits of such assays; conditions: source organism: Cryptosporidium parvum Iowa II
HLA-A*23:01 = assay: as above; conditions: source organism: Orthohantavirus hantanense
HLA-A*24:03 = assay: as above; conditions: source organism: Orthohantavirus hantanense
HLA-A*03:01 [16] = assay: IEDB peptide-MHC binding, purified MHC/competitive/fluorescence; filed as Kd, often an IC50 or EC50 that approximates it; ≥ and ≤ were set here for values at or beyond the usual limits of such assays
HLA-B*15:17 = assay: as above; conditions: source organism: Rickettsia felis URRWXCal2
[17] = source organism: Influenza A virus (A/Aichi/2/1994(H3N2))
[18] = source organism: Influenza A virus (A/swine/Cotes d'Armor/800/00(H1N2))
[19] = source organism: Influenza A virus (A/Puerto Rico/8/34/Mount Sinai(H1N1))
[20] = source organism: Giardia lamblia ATCC 50803
[21] = source organism: Cryptosporidium parvum Iowa II
[22] = source organism: Influenza A virus (A/Harbin/1/1988(H1N2))
[23] = source organism: Cryptosporidium parvum
[24] = source organism: Rickettsia felis URRWXCal2

Sequence: FQNVNRITY
- Kd (HLA-B*35:01; [17]): 0.0394 µM
- Kd (HLA-B*15:01 [1]; [17]): 0.0751 µM

Sequence: GMDPRMCSL
- Kd (HLA-A*24:02; [18]): ≥ 20 µM
- Kd (HLA-A*31:01): ≥ 20 µM
- Kd (HLA-A*01:01; [18]): ≥ 20 µM
- Kd (HLA-A*03:01 [2]; [18]): ≥ 20 µM
- Kd (HLA-B*46:01 [3]; [18]): ≥ 20 µM
- Kd (HLA-B*18:01 [4]; [18]): ≥ 20 µM
- Kd (HLA-A*02:01 [5]; [19]): 0.392 µM
- Kd (HLA-B*40:01; [18]): ≥ 20 µM
- Kd (HLA-B*27:05; [18]): ≥ 20 µM
- Kd (HLA-A*11:01; [18]): ≥ 20 µM
- Kd (HLA-B*08:01; [19]): 6.22 µM
- Kd (HLA-B*07:02 [6]; [19]): 1.66 µM
- Kd (HLA-B*58:01; [18]): ≥ 20 µM
- Kd (HLA-A*02:11): 0.011 µM
- Kd (HLA-B*15:01 [7]; [18]): ≥ 20 µM
- Kd (HLA-A*02:16 [8]): 0.019 µM
- Kd (HLA-A*69:01 [9]; [18]): ≥ 20 µM
- Kd (HLA-B*44:02; [18]): ≥ 20 µM

Sequence: IFKNLTKPL
- Kd (HLA-A*24:02; [20]): ≥ 20 µM
- Kd (HLA-A*01:01; [20]): ≥ 20 µM
- Kd (HLA-A*03:01 [2]; [20]): ≥ 20 µM
- Kd (HLA-B*18:01 [4]; [20]): ≥ 20 µM
- Kd (HLA-B*15:09; [20]): ≥ 20 µM
- Kd (HLA-A*02:01 [5]; [20]): ≥ 20 µM
- Kd (HLA-B*40:01; [20]): ≥ 20 µM
- Kd (HLA-B*27:05; [20]): ≥ 20 µM
- Kd (HLA-A*11:01; [20]): ≥ 20 µM
- Kd (HLA-B*08:01; [20]): 0.774 µM
- Kd (HLA-B*07:02 [6]; [20]): ≥ 20 µM
- Kd (HLA-B*58:01; [20]): ≥ 20 µM
- Kd (HLA-B*15:01 [7]; [20]): 0.757 µM
- Kd (HLA-A*69:01 [9]; [20]): ≥ 20 µM
- Kd (HLA-B*44:02; [20]): ≥ 20 µM

Sequence: KSFSAGMFH
- Kd (HLA-B*57:01; [21]): 0.574 µM
- Kd (HLA-B*51:01; [21]): ≥ 20 µM
- Kd (HLA-B*46:01 [10]; [21]): ≥ 20 µM
- Kd (HLA-B*27:03; [21]): ≥ 20 µM
- Kd (HLA-A*02:19; [21]): ≥ 20 µM
- Kd (HLA-B*18:01 [11]; [21]): ≥ 20 µM
- Kd (HLA-A*02:01 [12]; [21]): ≥ 20 µM
- Kd (HLA-A*26:01; [21]): ≥ 20 µM
- Kd (HLA-A*68:02): ≥ 20 µM
- Kd (HLA-A*02:12): ≥ 20 µM
- Kd (HLA-A*02:03): ≥ 20 µM
- Kd (HLA-A*29:02; [21]): ≥ 20 µM
- Kd (HLA-A*02:16 [13]): ≥ 20 µM
- Kd (HLA-B*39:01; [21]): ≥ 20 µM
- Kd (HLA-A*69:01 [14]): ≥ 20 µM

Sequence: LPFQNVHPV
- Kd (HLA-C*05:01): ≥ 20 µM
- Kd (HLA-B*51:01; [22]): 1.49 µM
- Kd (HLA-B*07:02 [15]): 0.161 µM
- Kd (HLA-B*35:01; [22]): 0.0004 µM

Sequence: NTSTCFQEY
- Kd (HLA-A*24:02; [23]): ≥ 20 µM
- Kd (HLA-B*08:02): ≥ 20 µM
- Kd (HLA-A*01:01; [23]): 0.0305 µM
- Kd (HLA-A*03:01 [2]; [23]): ≥ 20 µM
- Kd (HLA-B*46:01 [3]; [23]): ≥ 20 µM
- Kd (HLA-B*15:09; [21]): ≥ 20 µM
- Kd (HLA-A*02:01 [5]; [23]): ≥ 20 µM
- Kd (HLA-B*40:01; [23]): ≥ 20 µM
- Kd (HLA-B*27:05; [23]): ≥ 20 µM
- Kd (HLA-B*07:02 [6]; [23]): ≥ 20 µM
- Kd (HLA-B*58:01; [23]): ≥ 20 µM
- Kd (HLA-B*15:01 [7]; [23]): 0.592 µM
- Kd (HLA-A*69:01 [9]; [23]): ≥ 20 µM
- Kd (HLA-B*44:02; [23]): ≥ 20 µM

Sequence: QWLIEPCKL
- Kd (HLA-A*24:02; source organism: Orthohantavirus hantanense): 0.155 µM
- Kd (HLA-A*23:01): 0.18 µM
- Kd (HLA-A*24:03): 0.205 µM

Sequence: QYLFSLTYV
- Kd (HLA-B*57:01; [24]): ≥ 20 µM
- Kd (HLA-A*03:01 [16]; [24]): ≥ 20 µM
- Kd (HLA-B*51:01; [24]): ≥ 20 µM
- Kd (HLA-B*46:01 [10]; [24]): ≥ 20 µM
- Kd (HLA-B*27:03; [24]): ≥ 20 µM
- Kd (HLA-A*02:19; [24]): ≥ 20 µM
- Kd (HLA-A*02:01 [12]; [24]): 1.19 µM
- Kd (HLA-A*26:01; [24]): ≥ 20 µM
- Kd (HLA-B*15:17): ≥ 20 µM
- Kd (HLA-A*29:02; [24]): 8 µM
- Kd (HLA-B*15:01 [1]; [24]): ≥ 20 µM
- Kd (HLA-B*39:01; [24]): ≥ 20 µM

Sequence: RYMRVYNLW
- Kd (HLA-A*24:02; [20]): 0.002 µM

- Kd (HLA-B*57:01; source organism: Homo sapiens): ≥ 20 µM
- Kd (HLA-A*03:01 [16]; source organism: Homo sapiens): ≥ 20 µM
- Kd (HLA-B*46:01 [10]; source organism: Homo sapiens): ≥ 20 µM
- Kd (HLA-B*27:03; source organism: Homo sapiens): ≥ 20 µM
- Kd (HLA-B*18:01 [11]; source organism: Homo sapiens): ≥ 20 µM
- Kd (HLA-A*02:01 [12]; source organism: Homo sapiens): 0.0007 µM
- Kd (HLA-A*29:02; source organism: Homo sapiens): ≥ 20 µM
- Kd (HLA-B*15:01 [1]; source organism: Homo sapiens): ≥ 20 µM
- Kd (HLA-B*39:01; source organism: Homo sapiens): ≥ 20 µM
Sequence: VVPSYIPLV
